Reference: US20160158154A1 (GEORGIA TECH RESEARCH, published 2016)

B2: ZR-ELP (arginine-rich leucine zipper motif ZR fused with an elastin-like polypeptide) (other)
chain: MKGSLEIRAAALRRRNTALRTRVAELRQRVQRLRNEVSQYETRYGPLGGGGSGGGGSGVPGVGVPGVGVPGFGVPGVGVPGVGVPGVGVPGVGVPGFGVPGVGVPGVGVPGVGVPGVGVPGFGVPGVGVPGVGVPGVGVPGVGVPGFGVPGVGVPGVGVPGVGVPGVGVPGFGVPGVGVPGVGVPGC
notes: Forms ZR/ZR homodimers when no ZE partner is present

Assays:
[1] = target: B2; test: co-expression in E. coli
Source text: to prevent degradation during expression (Park W M, et al., Angew. Chem. Int. Ed., 52 (31), 8098-8101 (2013); Zhang K, et., Chem Bio Chem, 10 (16), 2617-2619 (2009)). Co-expressed ZR-ELP, i.e. the fusion peptide having an amino acid sequence of […](G₄S)₂G[(VPGVG)₂VPGFG(VPGVG)₂]₅VPGC (SEQ ID NO:27) and His₆ZE form a protein complex His₆ZE/ZR-ELP, which is resistant to proteolysis in the cytoplasm. All plasmids (pQE60-His₆ZE/ZR-ELP, pQE60-mCherry-ZE, and pQE60-EGFP-Z₅) were transformed into E. coli strain AFIQ-BL21 for expression. All cell cultures were grown at 37° C. in 2× yeast extract and tryptone (YT) media containing ampicillin (200 mg/L) and chloramphenicol (34 mg/L). When the cell culture optical density at 600 nm reached 0.8, protein expression was induced by 1.0 mM of isopropylβ-thiogalactoside (IPTG). Cells were harvested by centrifugation after 5 hours of expression at 37° C.

[2] = target: the molecule itself; test: solution at 4 C; circular dichroism confirmed the coiled coil
Protocol: The CD spectra of protein complexes were recorded on a Jasco J-810 spectropolarimeter (JASCO). Protein solution samples were prepared in PBS (pH 7.4), and measurements were performed in a 0.2 cm-length cuvette. The spectra were obtained in 1 nm increments within a wavelength range of 200-300 nm. Mean residue ellipticity was measured from protein solutions containing 5 μM of protein complexes at 4° C. Mean residue ellipticity was converted from accumulated spectra of five measurements for each sample. The peak at a wavelength of 222 nm indicated presence of α-helical coiled-coils of ZR/ZR and ZE/ZR.

B1: His6-tagged ZE (peptide)
peptide: LEIEAAALEQENTALETEVAELEQEVQRLENIVSQYRTRYGPLRSHHHHHH
notes: It was co-expressed with ZR-ELP; also called His6ZE; His6-ZE
[1]
  binding result: binds

## B2
[2]
  binding result: binds
